Reference: patent US20250076311A1 (Chugai, published 2025)

Tests used:
Assay in all cases: SPR (Biacore), 25C, FcgR bound per antibody captured
[1] = target: T1, human FcγRIIaH extracellular domain, His-tagged (human, UniProt P12318 34-217)
T1 construct: also called human FcgRIIaH; FcγRIIa type H
T1 sequence: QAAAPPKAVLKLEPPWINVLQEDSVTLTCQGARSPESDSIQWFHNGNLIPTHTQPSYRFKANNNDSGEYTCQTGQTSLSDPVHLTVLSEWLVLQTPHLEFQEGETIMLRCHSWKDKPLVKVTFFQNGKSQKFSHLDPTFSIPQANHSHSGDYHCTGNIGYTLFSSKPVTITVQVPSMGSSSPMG

[2] = target: T2, human FcγRIIb extracellular domain, His-tagged (human, UniProt P31994 43-217)
T2 construct: also called human FcgRIIb
T2 sequence: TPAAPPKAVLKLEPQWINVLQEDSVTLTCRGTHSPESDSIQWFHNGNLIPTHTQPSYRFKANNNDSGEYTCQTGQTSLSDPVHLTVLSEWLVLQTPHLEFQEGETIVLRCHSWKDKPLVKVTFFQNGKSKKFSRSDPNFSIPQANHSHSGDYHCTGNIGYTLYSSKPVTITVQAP

[3] = target: T3, human FcγRIIIaV extracellular domain, His-tagged (human, UniProt P08637 17-208)
T3 construct: also called human FcgRIIIaV
T3 sequence (P08637 17-208 F176V): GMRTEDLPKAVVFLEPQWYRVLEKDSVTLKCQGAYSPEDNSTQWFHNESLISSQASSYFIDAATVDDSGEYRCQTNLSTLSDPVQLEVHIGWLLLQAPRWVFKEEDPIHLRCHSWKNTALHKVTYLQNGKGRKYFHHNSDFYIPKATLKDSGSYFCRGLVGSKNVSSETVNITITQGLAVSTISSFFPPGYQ

B1: GpH7-B3 N325F / GpL16-k0 (antibody, human IgG1, kappa)
heavy: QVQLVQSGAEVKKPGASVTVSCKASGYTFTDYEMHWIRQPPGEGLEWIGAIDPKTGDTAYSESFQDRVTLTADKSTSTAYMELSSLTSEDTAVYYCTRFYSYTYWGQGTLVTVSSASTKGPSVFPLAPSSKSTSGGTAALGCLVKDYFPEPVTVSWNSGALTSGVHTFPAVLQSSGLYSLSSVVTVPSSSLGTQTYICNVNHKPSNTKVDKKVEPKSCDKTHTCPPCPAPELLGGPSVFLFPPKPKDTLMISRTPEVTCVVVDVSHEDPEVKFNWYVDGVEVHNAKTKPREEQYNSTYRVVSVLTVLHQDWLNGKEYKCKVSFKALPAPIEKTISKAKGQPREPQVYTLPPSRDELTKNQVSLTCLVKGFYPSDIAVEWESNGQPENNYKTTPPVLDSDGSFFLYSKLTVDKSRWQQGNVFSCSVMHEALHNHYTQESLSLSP
light: DIVMTQSPLSLPVTPGEPASISCQASESLVHSNRNTYLHWYLQKPGQSPQLLIYKVSNRFSGVPDRFSGSGSGTDFTLKISRVEAEDVGVYYCSQNTHVPPTFGQGTKVEIERTVAAPSVFIFPPSDEQLKSGTASVVCLLNNFYPREAKVQWKVDNALQSGNSQESVTEQDSKDSTYSLSSTLTLSKADYEKHKVYACEVTHQGLSSPVTKSFNRGEC
notes: also called B3 variant N325F
Binding to human FcgRs (parent B3 = 100) [1]: 65
Binding to human FcgRs (parent B3 = 100) [2]: 72
Binding to human FcgRs (parent B3 = 100) [3]: -1

B2: GpH7-B3 V266F / GpL16-k0 (antibody, human IgG1, kappa)
heavy: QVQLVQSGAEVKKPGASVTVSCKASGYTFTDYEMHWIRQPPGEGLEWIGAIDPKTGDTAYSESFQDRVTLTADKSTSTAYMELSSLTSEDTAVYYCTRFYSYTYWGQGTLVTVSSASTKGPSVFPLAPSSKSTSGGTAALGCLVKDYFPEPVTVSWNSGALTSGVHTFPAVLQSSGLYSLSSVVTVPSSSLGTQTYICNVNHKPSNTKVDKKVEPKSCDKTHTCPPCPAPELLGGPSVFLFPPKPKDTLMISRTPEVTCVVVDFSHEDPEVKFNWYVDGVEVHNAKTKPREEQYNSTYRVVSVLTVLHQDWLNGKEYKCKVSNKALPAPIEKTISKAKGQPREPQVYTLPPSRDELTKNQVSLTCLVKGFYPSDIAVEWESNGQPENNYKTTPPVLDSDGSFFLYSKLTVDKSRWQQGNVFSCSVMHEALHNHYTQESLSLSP
light: DIVMTQSPLSLPVTPGEPASISCQASESLVHSNRNTYLHWYLQKPGQSPQLLIYKVSNRFSGVPDRFSGSGSGTDFTLKISRVEAEDVGVYYCSQNTHVPPTFGQGTKVEIERTVAAPSVFIFPPSDEQLKSGTASVVCLLNNFYPREAKVQWKVDNALQSGNSQESVTEQDSKDSTYSLSSTLTLSKADYEKHKVYACEVTHQGLSSPVTKSFNRGEC
notes: also called B3 variant V266F
Binding to human FcgRs (parent B3 = 100) [2]: 88
Binding to human FcgRs (parent B3 = 100) [3]: 2

B3: GpH7-B3 S239P / GpL16-k0 (antibody, human IgG1, kappa)
heavy: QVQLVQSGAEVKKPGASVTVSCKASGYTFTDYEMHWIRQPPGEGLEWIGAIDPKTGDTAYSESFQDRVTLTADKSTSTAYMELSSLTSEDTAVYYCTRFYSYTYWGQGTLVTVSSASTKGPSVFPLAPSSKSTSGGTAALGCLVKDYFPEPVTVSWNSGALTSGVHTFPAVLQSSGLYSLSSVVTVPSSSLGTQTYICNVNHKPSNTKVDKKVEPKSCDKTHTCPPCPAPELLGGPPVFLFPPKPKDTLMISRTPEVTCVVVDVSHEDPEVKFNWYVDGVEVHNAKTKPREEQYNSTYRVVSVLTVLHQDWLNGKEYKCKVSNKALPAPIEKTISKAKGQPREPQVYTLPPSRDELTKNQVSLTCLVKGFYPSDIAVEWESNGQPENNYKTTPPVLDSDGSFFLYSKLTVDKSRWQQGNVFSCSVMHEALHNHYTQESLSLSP
light: DIVMTQSPLSLPVTPGEPASISCQASESLVHSNRNTYLHWYLQKPGQSPQLLIYKVSNRFSGVPDRFSGSGSGTDFTLKISRVEAEDVGVYYCSQNTHVPPTFGQGTKVEIERTVAAPSVFIFPPSDEQLKSGTASVVCLLNNFYPREAKVQWKVDNALQSGNSQESVTEQDSKDSTYSLSSTLTLSKADYEKHKVYACEVTHQGLSSPVTKSFNRGEC
notes: also called B3 variant S239P
Binding to human FcgRs (parent B3 = 100) [1]: 49
Binding to human FcgRs (parent B3 = 100) [2]: 61
Binding to human FcgRs (parent B3 = 100) [3]: -1

B4: GpH7-B3 P238Y / GpL16-k0 (antibody, human IgG1, kappa)
heavy: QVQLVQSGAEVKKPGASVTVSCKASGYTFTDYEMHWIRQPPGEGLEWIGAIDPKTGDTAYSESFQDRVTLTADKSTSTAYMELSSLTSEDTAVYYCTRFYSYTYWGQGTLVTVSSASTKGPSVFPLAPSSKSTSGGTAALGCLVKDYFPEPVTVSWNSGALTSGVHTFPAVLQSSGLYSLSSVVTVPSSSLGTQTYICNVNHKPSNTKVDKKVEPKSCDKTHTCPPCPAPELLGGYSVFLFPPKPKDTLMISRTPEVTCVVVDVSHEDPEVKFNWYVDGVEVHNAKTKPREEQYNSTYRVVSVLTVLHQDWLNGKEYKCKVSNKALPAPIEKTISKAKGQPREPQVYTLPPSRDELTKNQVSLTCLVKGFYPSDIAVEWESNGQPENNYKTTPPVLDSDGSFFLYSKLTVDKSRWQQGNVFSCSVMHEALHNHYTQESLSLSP
light: DIVMTQSPLSLPVTPGEPASISCQASESLVHSNRNTYLHWYLQKPGQSPQLLIYKVSNRFSGVPDRFSGSGSGTDFTLKISRVEAEDVGVYYCSQNTHVPPTFGQGTKVEIERTVAAPSVFIFPPSDEQLKSGTASVVCLLNNFYPREAKVQWKVDNALQSGNSQESVTEQDSKDSTYSLSSTLTLSKADYEKHKVYACEVTHQGLSSPVTKSFNRGEC
notes: also called B3 variant P238Y
Binding to human FcgRs (parent B3 = 100) [1]: 93
Binding to human FcgRs (parent B3 = 100) [2]: 114
Binding to human FcgRs (parent B3 = 100) [3]: 3
